Literature values in article PMC2917178.

Biological target: Lys66 (UniProt position 148, FTKKMKENAKK)
Details: native (folded) state

For “Staphylococcal nuclease V66K variant (Staphylococcus aureus; V66K)”, the pKa is listed as 6.4.
